From patent US20130323786A1 (Biogen, published 2013)
Substitutions are numbered along the chain they refer to. Names and notes keep the numbering of the source.

T1: LINGO-Fc (human, UniProt Q96FE5 40-538, limits assumed)
T1 construct: not shown: Fc part
T1 sequence: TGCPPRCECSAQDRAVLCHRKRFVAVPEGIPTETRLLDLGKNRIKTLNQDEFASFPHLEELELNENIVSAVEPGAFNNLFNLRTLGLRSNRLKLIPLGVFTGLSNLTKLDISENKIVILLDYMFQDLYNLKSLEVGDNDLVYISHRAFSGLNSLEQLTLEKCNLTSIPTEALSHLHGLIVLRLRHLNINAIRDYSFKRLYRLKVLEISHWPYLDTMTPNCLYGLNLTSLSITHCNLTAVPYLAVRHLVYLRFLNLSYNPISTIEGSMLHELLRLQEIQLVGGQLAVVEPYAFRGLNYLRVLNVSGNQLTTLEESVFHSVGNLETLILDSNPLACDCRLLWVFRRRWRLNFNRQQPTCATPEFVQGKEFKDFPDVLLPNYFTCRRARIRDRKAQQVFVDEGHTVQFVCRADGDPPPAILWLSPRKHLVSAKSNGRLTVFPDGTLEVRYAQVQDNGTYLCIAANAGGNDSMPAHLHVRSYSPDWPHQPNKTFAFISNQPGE

T2: human Fc receptor CD32a-GST fusion protein (human, UniProt P12318 34-217)
T2 construct: not shown: GST
T2 sequence (looked up): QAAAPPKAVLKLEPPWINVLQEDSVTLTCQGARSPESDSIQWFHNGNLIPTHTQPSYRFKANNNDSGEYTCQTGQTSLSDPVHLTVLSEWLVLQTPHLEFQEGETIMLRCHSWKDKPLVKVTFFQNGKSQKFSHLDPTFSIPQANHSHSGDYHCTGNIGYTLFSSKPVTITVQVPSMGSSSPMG

T3: human Fc receptor CD32b-GST fusion protein (human, UniProt P31994 43-217)
T3 construct: not shown: GST
T3 sequence (looked up): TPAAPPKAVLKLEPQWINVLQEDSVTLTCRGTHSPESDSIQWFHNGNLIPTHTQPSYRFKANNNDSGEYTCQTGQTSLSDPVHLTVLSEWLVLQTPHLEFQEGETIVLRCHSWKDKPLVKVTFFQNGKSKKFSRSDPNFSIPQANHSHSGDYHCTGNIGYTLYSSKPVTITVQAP

B1: Li33 variant W50D (SEQ ID NO:175) (antibody, V domains shown)
VH: EVQLLESGGGLVQPGGSLRLSCAASGFTFSIYPMFWVRQAPGKGLEWVSDIGPSGGITKYADSVKGRFTISRDNSKNTLYLQMNSLRAEDTATYYCAREGHNDWYFDLWGRGTLVTVSS
VL: DIQMTQSPGTLSLSPGERATLSCRASQSVSSYLAWYQQKPGQAPRLLIYDASNRATGIPARFSGSGSGTEFTLTISSLQSEDFAVYYCQQYDKWPLTFGGGTKVEIKR
notes: unchanged chain from WT Li33
B2: Li33 variant W50H (SEQ ID NO:147) (antibody, V domains shown)
VH: B1 VH with D50H
VL: B1 VL
notes: unchanged chain from WT Li33
B3: Li33 variant W104M (SEQ ID NO:176) (antibody, V domains shown)
VH: B1 VH with D50W, W104M
VL: B1 VL
notes: unchanged chain from WT Li33
B4: Li33 variant W104T (SEQ ID NO:178) (antibody, V domains shown)
VH: B1 VH with D50W, W104T
VL: B1 VL
notes: unchanged chain from WT Li33
B5: Li33 variant W50M (SEQ ID NO:150) (antibody, V domains shown)
VH: B1 VH with D50M
VL: B1 VL
notes: unchanged chain from WT Li33
B6: Li33 variant W94D (SEQ ID NO:166) (antibody, V domains shown)
VH: B1 VH with D50W
VL: B1 VL with W94D
notes: unchanged chain from WT Li33
B7: Li33 variant W50I (SEQ ID NO:174) (antibody, V domains shown)
VH: B1 VH with D50I
VL: B1 VL
notes: unchanged chain from WT Li33
B8: Li33 variant W104V (SEQ ID NO:155) (antibody, V domains shown)
VH: B1 VH with D50W, W104V
VL: B1 VL
notes: unchanged chain from WT Li33
B9: Li33 variant W104Q (SEQ ID NO:158) (antibody, V domains shown)
VH: B1 VH with D50W, W104Q
VL: B1 VL
notes: unchanged chain from WT Li33
B10: Li33 variant W94A (SEQ ID NO:165) (antibody, V domains shown)
VH: B1 VH with D50W
VL: B1 VL with W94A
notes: unchanged chain from WT Li33
B11: Li33 variant W94G (SEQ ID NO:169) (antibody, V domains shown)
VH: B1 VH with D50W
VL: B1 VL with W94G
notes: unchanged chain from WT Li33
B12: Li33 variant W94L (SEQ ID NO:167) (antibody, V domains shown)
VH: B1 VH with D50W
VL: B1 VL with W94L
notes: unchanged chain from WT Li33
B13: Li33 variant W104L (SEQ ID NO:177) (antibody, V domains shown)
VH: B1 VH with D50W, W104L
VL: B1 VL
notes: unchanged chain from WT Li33
B14: Li33 variant W104S (SEQ ID NO:157) (antibody, V domains shown)
VH: B1 VH with D50W, W104S
VL: B1 VL
notes: unchanged chain from WT Li33
B15: Li33 variant W94Q (SEQ ID NO:170) (antibody, V domains shown)
VH: B1 VH with D50W
VL: B1 VL with W94Q
notes: unchanged chain from WT Li33
B16: Li33 variant W94V (SEQ ID NO:171) (antibody, V domains shown)
VH: B1 VH with D50W
VL: B1 VL with W94V
notes: unchanged chain from WT Li33
B17: Li33 variant W94N (SEQ ID NO:168) (antibody, V domains shown)
VH: B1 VH with D50W
VL: B1 VL with W94N
notes: unchanged chain from WT Li33
B18: Li33 variant W104Q (SEQ ID NO:187) (antibody, V domains shown)
VH: B1 VH with D50W, W104Q
VL: B1 VL
notes: unchanged chain from WT Li33
B19: Li33 variant W50L (SEQ ID NO:149) (antibody, V domains shown)
VH: B1 VH with D50L
VL: B1 VL
notes: unchanged chain from WT Li33
B20: Li33 variant W50F (SEQ ID NO:148) (antibody, V domains shown)
VH: B1 VH with D50F
VL: B1 VL
notes: unchanged chain from WT Li33
B21: Li33 variant W104I (SEQ ID NO:179) (antibody, V domains shown)
VH: B1 VH with D50W, W104I
VL: B1 VL
notes: unchanged chain from WT Li33
B22: Li33 variant W104H (SEQ ID NO:156) (antibody, V domains shown)
VH: B1 VH with D50W, W104H
VL: B1 VL
notes: unchanged chain from WT Li33
B23: Li33 variant W94S (SEQ ID NO:172) (antibody, V domains shown)
VH: B1 VH with D50W
VL: B1 VL with W94S
notes: unchanged chain from WT Li33
B24: Li81 (agly) (antibody, human IgG1)
heavy: not shown
VL: DIQMTQSPATLSLSPGERATLSCRASQSVSSYLAWYQQKPGQAPRLLIYDASNRATGIPARFSGSGSGTDFTLTISSLEPEDFAVYYCQQRSNWPMYTFGQGTKLEIK
notes: Aglycosylated fully human IgG1 (single T to A change in the heavy chain); also called Li81 Ig1agly; Li81 Mab; copies: 2 + 2

Target: T1, LINGO-Fc
Assay: direct ELISA on LINGO-Fc; OD450 at saturation relative to Li33;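 note: binding to plate-coated LINGO-Fc read by OD450, with the value at maximal saturation divided by the corresponding Li33 value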

Binder | Plateau Ratio [ratio]
B1 | 0.71
B2 | 0.87
B3 | 0.88
B4 | 0.33
B5 | 0.93
B6 | 0.87
B7 | 12.4
B8 | 0.94
B9 | 0.91
B10 | 0.91
B11 | 1.03
B12 | 0.97
B13 | 0.69
B14 | 0.85
B15 | 1.05
B16 | 0.91
B17 | 1.05
B18 | 0.67
B19 | 1
B20 | 0.86
B21 | 0.62
B22 | 0.91
B23 | 0.99

Target: T2, human Fc receptor CD32a-GST fusion …
Assay: ALPHA competition vs biotinylated wild-type IgG1; receptor-GST

Binder | IC50 [µg/mL]
B24 | 365

Target: T4, human Fc receptor CD16-GST fusion protein (human, UniProt P08637 17-208)
T4 construct: not shown: GST
Assay: as above

Binder | IC50 [µg/mL]
B24 | 179

Target: T3, human Fc receptor CD32b-GST fusion …
Assay: as above

Binder | IC50 [µg/mL]
B24 | 350

Target: T1, LINGO-Fc
Assay: direct ELISA on LINGO-Fc; half-maximal concentration relative to Li33;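 note: direct binding ELISA on plates coated with LINGO-Fc, concentration giving half of saturating binding, expressed as a ratio to the same value for the comparator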

Binder | ELISA Ratio [ratio]
B1 | 4
B2 | 1.3
B3 | 3.8
B4 | 3.5
B5 | 2
B6 | 1.5
B7 | 93.5
B8 | 2.8
B9 | 2.4
B10 | 1.6
B11 | 0.9
B12 | 0.6
B13 | 2.5
B14 | 2.7
B15 | 0.9
B16 | 1.4
B17 | 0.8
B18 | 1.1
B19 | 1.8
B20 | 1.2
B21 | 6.5
B22 | 0.1
B23 | 1.3

Target: T2, human Fc receptor CD32a-GST fusion …
Assay: ALPHA competition vs biotinylated wild-type IgG1; relative to wt

Binder | fold decrease from wt [fold]
B24 | 60

Target: T5, human Fc receptor CD64-GST fusion protein (human, UniProt P12314 16-292, limits assumed)
T5 construct: not shown: GST
Assay: as above

Binder | fold decrease from wt [fold]
B24 | > 100

Target: T4, human Fc receptor CD16-GST fusion …
Assay: as above

Binder | fold decrease from wt [fold]
B24 | 50

Target: T3, human Fc receptor CD32b-GST fusion …
Assay: as above

Binder | fold decrease from wt [fold]
B24 | 15
